Test results taken from patent US20030022853A1.

What was measured:
[1] = biological target: pure human c-JUN protein (full length, Promega) (human) (UniProt P05412); test: laser fluorescence quenching assay, 1 µg antibody + 1 µg c-JUN + 0.075 pmole JD1F/2F, 50 mM NaCl
[2] = biological target: pure human c-JUN protein (full length, Promega) (human) (UniProt P05412); test: laser fluorescence quenching assay, 5 µg antibody + 1 µg c-JUN + 0.075 pmole JD1F/2F, 50 mM NaCl
[3] = biological target: pure human c-JUN protein (full length, Promega) (human) (UniProt P05412); test: laser fluorescence quenching assay, 750 ng antibody + 250 ng c-JUN + 0.075 pmole JD1F/2F, 50 mM NaCl
[4] = biological target: pure human c-JUN protein (full length, Promega) (human) (UniProt P05412); test: laser fluorescence quenching assay, 1 µg antibody + 1 µg c-JUN + 0.075 pmole JD1F/2F, 50 mM NaCl (c-JUN:DNA alone 25%)
[5] = biological target: pure human c-JUN protein (full length, Promega) (human) (UniProt P05412); test: laser fluorescence quenching assay, 5 µg antibody + 1 µg c-JUN + 0.075 pmole JD1F/2F, 50 mM NaCl (c-JUN:DNA alone 25%)
[6] = biological target: pure human c-JUN protein (full length, Promega) (human) (UniProt P05412); test: laser fluorescence quenching assay, 750 ng antibody + 250 ng c-JUN + 0.075 pmole JD1F/2F, 50 mM NaCl (c-JUN:DNA alone 11%)

Chain of UniProt P05412 (P05412 whole entry): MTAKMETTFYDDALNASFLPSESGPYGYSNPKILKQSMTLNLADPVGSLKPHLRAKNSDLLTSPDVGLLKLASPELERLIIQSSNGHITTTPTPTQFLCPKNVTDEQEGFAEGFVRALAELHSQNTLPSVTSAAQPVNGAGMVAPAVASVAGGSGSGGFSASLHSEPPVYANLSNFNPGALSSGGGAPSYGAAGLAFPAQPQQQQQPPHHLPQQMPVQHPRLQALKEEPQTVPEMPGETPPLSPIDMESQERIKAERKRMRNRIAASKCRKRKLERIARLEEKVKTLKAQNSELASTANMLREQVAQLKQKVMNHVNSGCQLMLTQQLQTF

- further decrease in fluorescent intensity from the c-JUN:DNA complex [1]: 12%
- further decrease in fluorescent intensity from the c-JUN:DNA complex [2]: 17%
- further decrease in fluorescent intensity from the c-JUN:DNA complex [3]: 16%
- decrease in fluorescent intensity compared to DNA alone [4]: 37%
- decrease in fluorescent intensity compared to DNA alone [5]: 42%
- decrease in fluorescent intensity compared to DNA alone [6]: 27%
Substance: monoclonal IgG1 antibody, c-JUN (KM-1) (Santa Cruz Biotechnology)
